Laboratory results: patent US20110009473A1 (CEDARS SINAI MEDICAL CENTER, published 2011)

T1: His-tagged PTTG1
T1 chain: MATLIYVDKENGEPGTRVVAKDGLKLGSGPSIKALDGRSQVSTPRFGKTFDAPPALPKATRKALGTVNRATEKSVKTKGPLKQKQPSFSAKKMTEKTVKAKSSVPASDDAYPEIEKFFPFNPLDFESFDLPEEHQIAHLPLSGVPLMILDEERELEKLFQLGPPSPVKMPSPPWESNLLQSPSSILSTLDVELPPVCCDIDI


Experiments:
BSA = molecular target: T2, BSA (bovine, UniProt P02769 25-607); experiment: protein microarray probed with biotinylated PTTG1, Streptavidin-Alexa Fluor 647
T2 construct: Control on the protein microarray; also called bovine serum albumin
Experimental: The human Protoarray nc3.0 study was performed as described by the manufacturer (obtained from Invitrogen Corporation; Carlsbad, Calif.). […] Arrays were scanned by GenePix 4000B (obtained from Molecular Devices Corporation; Sunnyvale, Calif.), and images analyzed using ProtoArray Prospector (Invitrogen).

His-tagged PTTG1 = molecular target: T1, His-tagged PTTG1

T2 sequence (P02769 25-607 limits assumed): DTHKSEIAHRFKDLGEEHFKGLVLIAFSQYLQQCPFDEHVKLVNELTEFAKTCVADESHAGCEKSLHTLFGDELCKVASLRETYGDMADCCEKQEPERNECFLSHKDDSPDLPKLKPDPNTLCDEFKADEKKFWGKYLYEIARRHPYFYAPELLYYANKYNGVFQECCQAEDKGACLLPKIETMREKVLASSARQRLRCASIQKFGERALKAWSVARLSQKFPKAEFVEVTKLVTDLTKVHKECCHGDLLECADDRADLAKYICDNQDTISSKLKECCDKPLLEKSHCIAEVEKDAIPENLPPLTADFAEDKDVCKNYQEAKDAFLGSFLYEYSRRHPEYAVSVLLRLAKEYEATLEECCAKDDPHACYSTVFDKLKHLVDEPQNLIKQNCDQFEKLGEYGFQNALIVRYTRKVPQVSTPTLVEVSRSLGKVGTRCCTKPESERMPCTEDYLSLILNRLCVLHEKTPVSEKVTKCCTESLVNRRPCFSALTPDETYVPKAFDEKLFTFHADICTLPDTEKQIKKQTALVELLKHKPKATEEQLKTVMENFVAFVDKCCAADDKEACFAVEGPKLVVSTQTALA

| binding result (BSA) | Binder | Aurora Kinase A phosphorylation of histone H3 (Ser10), in vitro kinase assay, Western blot (His-tagged PTTG1) | Aurora Kinase A phosphorylation of histone H3 (Ser10), in vitro kinase assay, Western blot (control His-GST protein) |
| --- | --- | --- | --- |
| no binding | pituitary tumor transforming gene 1 (PTTG1) protein (other, biotinylated with biotin-XX sulfosuccinimidyl ester (protein array); biotin-lysine labeled during synthesis (as prey in pull-down); endogenous and unlabeled in co-immunoprecipitation, Used as biotinylated probe on the array, as endogenous protein of HCT116 lysates in co-IP, and as in vitro translated prey in the pull-down; also called securin) MATLIYVDKENGEPGTRVVAKDGLKLGSGPSIKALDGRSQVSTPRFGKTFDAPPALPKATRKALGTVNRATEKSVKTKGPLKQKQPSFSAKKMTEKTVKAKSSVPASDDAYPEIEKFFPFNPLDFESFDLPEEHQIAHLPLSGVPLMILDEERELEKLFQLGPPSPVKMPSPPWESNLLQSPSSILSTLDVELPPVCCDIDI |  |  |
|  | GST-Aurora Kinase A (protein) MDRSKENCISGPVKATAPVGGPKRVLVTQQFPCQNPLPVNSGQAQRVLCPSNSSQRIPLQAQKLVSSHKPVQNQKQKQLQATSVPHPVSRPLNNTQKSKQPLPSAPENNPEEELASKQKNEESKKRQWALEDFEIGRPLGKGKFGNVYLAREKQSKFILALKVLFKAQLEKAGVEHQLRREVEIQSHLRHPNILRLYGYFHDATRVYLILEYAPLGTVYRELQKLSKFDEQRTATYITELANALSYCHSKRVIHRDIKPENLLLGSAGELKIADFGWSVHAPSSRRTTLCGTLDYLPPEMIEGRMHDEKVDLWSLGVLCYEFLVGKPPFEANTYQETYKRISRVEFTFPDFVTEGARDLISRLLKHNPSQRPMLREVLEHPWITANSSKPSNCQNKESASKQS | Addition of PTTG1 dose-dependently inhibited Aurora Kinase A histone H3 phosphorylation | GST-His has no effect at the same concentration |
